Experimental data: IntAct's records for PubMed 35512704

B1: Mothers against decapentaplegic homolog 4 (Homo sapiens), Q13485 (parent)
chain: MDNMSITNTPTSNDACLSIVHSLMCHRQGGESETFAKRAIESLVKKLKEKKDELDSLITAITTNGAHPSKCVTIQRTLDGRLQVAGRKGFPHVIYARLWRWPDLHKNELKHVKYCQYAFDLKCDSVCVNPYHYERVVSPGIDLSGLTLQSNAPSSMMVKDEYVHDFEGQPSLSTEGHSIQTIQHPPSNRASTETYSTPALLAPSESNATSTANFPNIPVASTSQPASILGGSHSEGLLQIASGPQPGQQQNGFTGQPATYHHNSTTTWTGSRTAPYTPNLPHHQNGHLQHHPPMPPHPGHYWPVHNELAFQPPISNHPAPEYWCSIAYFEMDVQVGETFKVPSSCPIVTVDGYVDPSGGDRFCLGQLSNVHRTEAIERARLHIGKGVQLECKGEGDVWVRCLSDHAVFVQSYYLDREAGRAPGDAVHKIYPSAYIKVFDLRQCHRQMQQQAATAQAAAAAQAAAVAGNIPGPGSVGGIAPAISLSAAAGIGVDDLRRLCILRMSFVKGWGPDYPRQSIKETPCWIEIHLHRALQLLDEVLHTMPIADPQPLD
partner: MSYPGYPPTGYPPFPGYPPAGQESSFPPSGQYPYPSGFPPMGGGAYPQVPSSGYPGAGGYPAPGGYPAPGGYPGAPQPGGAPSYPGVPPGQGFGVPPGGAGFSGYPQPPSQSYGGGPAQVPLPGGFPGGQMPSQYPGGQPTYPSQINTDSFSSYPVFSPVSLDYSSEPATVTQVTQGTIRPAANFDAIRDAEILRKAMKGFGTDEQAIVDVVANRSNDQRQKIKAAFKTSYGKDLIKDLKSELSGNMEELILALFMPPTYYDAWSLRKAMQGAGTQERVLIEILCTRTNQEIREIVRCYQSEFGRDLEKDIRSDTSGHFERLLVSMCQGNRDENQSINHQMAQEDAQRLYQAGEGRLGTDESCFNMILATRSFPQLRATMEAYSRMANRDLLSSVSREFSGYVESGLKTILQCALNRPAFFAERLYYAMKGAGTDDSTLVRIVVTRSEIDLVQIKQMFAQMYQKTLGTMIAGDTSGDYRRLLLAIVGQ
B2: Mothers against decapentaplegic homolog 4 (Homo sapiens), Q13485 (parent)
chain: B1 chain
partner: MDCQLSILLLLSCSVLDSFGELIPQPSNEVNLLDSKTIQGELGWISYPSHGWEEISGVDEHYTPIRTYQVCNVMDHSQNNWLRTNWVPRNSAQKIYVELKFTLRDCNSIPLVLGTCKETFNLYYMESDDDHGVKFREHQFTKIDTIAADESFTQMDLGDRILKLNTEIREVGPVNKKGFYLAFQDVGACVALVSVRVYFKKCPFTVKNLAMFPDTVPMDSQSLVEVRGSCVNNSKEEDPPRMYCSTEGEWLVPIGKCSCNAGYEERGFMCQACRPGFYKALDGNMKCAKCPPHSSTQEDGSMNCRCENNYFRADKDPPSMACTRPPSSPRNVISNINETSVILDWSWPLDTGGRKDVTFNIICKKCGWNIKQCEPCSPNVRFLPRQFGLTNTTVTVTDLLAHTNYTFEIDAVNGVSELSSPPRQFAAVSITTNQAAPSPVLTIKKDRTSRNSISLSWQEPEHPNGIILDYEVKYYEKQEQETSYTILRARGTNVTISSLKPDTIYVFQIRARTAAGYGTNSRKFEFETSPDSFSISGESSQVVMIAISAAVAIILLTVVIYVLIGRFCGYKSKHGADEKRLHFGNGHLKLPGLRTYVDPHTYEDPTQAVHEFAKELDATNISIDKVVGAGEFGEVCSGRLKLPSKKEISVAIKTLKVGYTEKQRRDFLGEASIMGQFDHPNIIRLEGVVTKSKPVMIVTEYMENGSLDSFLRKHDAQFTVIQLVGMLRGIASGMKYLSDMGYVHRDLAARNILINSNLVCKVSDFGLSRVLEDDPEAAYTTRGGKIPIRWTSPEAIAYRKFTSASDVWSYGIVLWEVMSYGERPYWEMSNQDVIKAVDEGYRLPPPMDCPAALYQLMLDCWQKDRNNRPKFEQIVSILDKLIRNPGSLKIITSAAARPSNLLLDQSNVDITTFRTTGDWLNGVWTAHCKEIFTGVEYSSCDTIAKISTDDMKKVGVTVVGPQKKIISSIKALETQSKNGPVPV
B3: Mothers against decapentaplegic homolog 4 (Homo sapiens), Q13485 (parent)
chain: B1 chain
partner: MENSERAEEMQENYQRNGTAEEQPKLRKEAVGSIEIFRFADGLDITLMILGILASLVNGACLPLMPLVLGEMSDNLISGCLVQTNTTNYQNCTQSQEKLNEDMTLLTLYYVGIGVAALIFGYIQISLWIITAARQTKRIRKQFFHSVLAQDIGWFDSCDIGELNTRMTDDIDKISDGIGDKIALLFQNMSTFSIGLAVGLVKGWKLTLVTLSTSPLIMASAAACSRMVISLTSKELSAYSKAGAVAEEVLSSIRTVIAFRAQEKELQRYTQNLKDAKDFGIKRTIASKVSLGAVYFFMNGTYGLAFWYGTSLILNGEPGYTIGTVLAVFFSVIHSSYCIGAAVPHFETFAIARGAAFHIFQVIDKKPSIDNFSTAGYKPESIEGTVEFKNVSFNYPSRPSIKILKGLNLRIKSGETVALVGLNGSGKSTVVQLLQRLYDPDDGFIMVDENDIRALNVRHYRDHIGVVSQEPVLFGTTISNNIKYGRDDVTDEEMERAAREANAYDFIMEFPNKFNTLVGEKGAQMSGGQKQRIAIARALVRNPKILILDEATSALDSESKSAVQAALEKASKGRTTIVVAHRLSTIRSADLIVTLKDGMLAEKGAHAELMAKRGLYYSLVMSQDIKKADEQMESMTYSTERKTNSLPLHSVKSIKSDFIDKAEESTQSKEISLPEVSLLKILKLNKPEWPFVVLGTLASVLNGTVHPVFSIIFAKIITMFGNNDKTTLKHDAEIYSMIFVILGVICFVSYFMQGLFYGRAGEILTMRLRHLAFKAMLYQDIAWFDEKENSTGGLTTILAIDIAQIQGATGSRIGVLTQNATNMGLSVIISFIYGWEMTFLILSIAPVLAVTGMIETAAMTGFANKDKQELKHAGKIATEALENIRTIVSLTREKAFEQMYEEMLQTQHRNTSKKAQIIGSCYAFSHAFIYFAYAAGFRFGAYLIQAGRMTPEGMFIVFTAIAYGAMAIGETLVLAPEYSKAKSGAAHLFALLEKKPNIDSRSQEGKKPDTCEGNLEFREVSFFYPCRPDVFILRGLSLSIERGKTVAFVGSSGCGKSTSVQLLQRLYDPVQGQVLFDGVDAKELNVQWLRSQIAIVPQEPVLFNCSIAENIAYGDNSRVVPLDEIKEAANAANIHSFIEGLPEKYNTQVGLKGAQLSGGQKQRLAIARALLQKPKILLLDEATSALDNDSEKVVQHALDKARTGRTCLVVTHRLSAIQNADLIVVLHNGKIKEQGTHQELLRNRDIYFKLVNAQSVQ

Variants of: B1
Conditions: with anxa7_human ANXA7, P20073

Q: G386D was tested. Which “effect of a mutation on the interaction” value did it give?
A: The value was “with no effect”.

Variants of: B1
Conditions: with anxa7_human ANXA7, P20073
Remark: another data set of the same source

Q: With D351H as the variant, how does the “effect of a mutation on the interaction” value read?
A: Its value is “with no effect”.

Variants of: B1
Conditions: with anxa7_human ANXA7, P20073
Remark: another data set of the same source

Q: R361H was tested. Which “effect of a mutation on the interaction” value did it give?
A: The value was “with no effect”.

Variants of: B1
Conditions: with anxa7_human ANXA7, P20073
Remark: another data set of the same source

Q: R361C was tested. Which “effect of a mutation on the interaction” value did it give?
A: Its value is “with no effect”.

Variants of: B2
Conditions: with epha3_human EPHA3, P29320

Q: Which “effect of a mutation on the interaction” value does the source give for G386D here?
A: The value was “with no effect”.

Variants of: B2
Conditions: with epha3_human EPHA3, P29320
Remark: another data set of the same source

Q: Which “effect of a mutation on the interaction” value does the source give for G386D here?
A: The value was “increasing interaction strength”.

Variants of: B2
Conditions: with epha3_human EPHA3, P29320
Remark: another data set of the same source

Q: R361H was tested. Which “effect of a mutation on the interaction” value did it give?
A: The value was “with no effect”.

Variants of: B2
Conditions: with epha3_human EPHA3, P29320
Remark: another data set of the same source

Q: How did the “effect of a mutation on the interaction” value turn out when R361C was run?
A: The value was “with no effect”.

Variants of: B2
Conditions: with epha3_human EPHA3, P29320
Remark: another data set of the same source

Q: With D351H as the variant, how does the “effect of a mutation on the interaction” value read?
A: Its value is “with no effect”.

Variants of: B3
Conditions: with abcb5_human ABCB5, Q2M3G0

Q: How did the “effect of a mutation on the interaction” value turn out when R361H was run?
A: Its value is “with no effect”.

Variants of: B3
Conditions: with abcb5_human ABCB5, Q2M3G0
Remark: another data set of the same source

Q: R361C was tested. Which “effect of a mutation on the interaction” value did it give?
A: The value was “with no effect”.
